Reference: paper PMC9769388 (Journal of Virology, 2022)

Target: T1, soluble CD4 (D1D2 domains, residues 1 to 186)
T1 construct: also called sCD4; source: Expi293F, purified (StrepTrap HP, SEC)
Assay: cryo-EM structure; Fab, soluble SOSIP trimer and sCD4 incubated at a molar ratio of 3.6:1:3.6 Fab/Env/sCD4 at room temperature for 4 h; single-particle cryo-EM of the ternary complex
Settings: both partners purified

B1: CG10 Fab (Fab, V domains shown)
VH: QVQLKQSGTELVRPGTSVKMSCKAAGYTFTDYWIGWVKQRPGHGLEWIGDFYPGGDYTLYSENFMGKASLTADTSSNTAYMQLSSLTSEDSAIYYCARGHYYGYSYAWFAYWGQGTLVTVSS
VL: DIVLTQSPASLAVSLGQRATISCKASQSVDYDGDSYMNWYQQKPGQPPKLLIYAASNLESGIPARFSGSGSGTDFTLNIHPVGEEDAATYYCQQSHEDPWTFGGGTMLEIK
notes: source: Expi293F, purified (Ni-NTA, SEC)
binding result: binds
